Experimental data taken from patent US20230218721A1, “INCRETIN ANALOGUE, PREPARATION METHOD THEREFOR, AND USE THEREOF” (ZHEJIANG DOER BIOLOGICS CO., LTD., priority 2020, published 2023).

Target: human glucagon-like peptide-1 receptor (GLP-1R) (human (printed as 'Humanized')) (UniProt P43220)
Test: cell-based or functional assay

Sequence of human glucagon-like peptide-1 receptor (GLP-1R) (human (printed as 'Humanized')) (P43220 24-463): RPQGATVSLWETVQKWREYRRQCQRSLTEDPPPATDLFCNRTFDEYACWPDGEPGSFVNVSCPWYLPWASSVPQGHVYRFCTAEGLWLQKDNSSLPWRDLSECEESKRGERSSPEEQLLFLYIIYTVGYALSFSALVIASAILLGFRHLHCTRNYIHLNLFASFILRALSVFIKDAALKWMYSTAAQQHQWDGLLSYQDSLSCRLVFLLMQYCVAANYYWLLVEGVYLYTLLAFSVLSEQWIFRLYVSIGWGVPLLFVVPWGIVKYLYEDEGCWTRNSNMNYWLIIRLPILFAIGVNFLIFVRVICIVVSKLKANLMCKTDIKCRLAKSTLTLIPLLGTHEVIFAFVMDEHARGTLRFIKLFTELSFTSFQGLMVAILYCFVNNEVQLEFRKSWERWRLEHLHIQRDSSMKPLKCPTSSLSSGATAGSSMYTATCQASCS

Dulaglutide (Trade name: Trulicity) (Fc fusion)
GLP-1R agonist activity (EC50, nM): 0.01 nM
